Measurements as given in patent US20090280543A1, “REGIOSELECTIVE GLYCOSYLATION” (THE UNIVERSITY OF YORK, priority 2005, published 2009).

Tests used:
[1] = D-glucose adsorption by PVPP, HPAEC of samples treated with and without PVPP; assay type: physicochemical
Protocol: FIG. 8: Lack of D-glucose adsorption by PVPP.
High Performance Anion Exchange Chromatography (HPAEC): HPAEC coupled with integrated amperometric detection (IAD) (Dionex, U.K.) was used to detect D-glucose using a CarboPac™ PA10 column (2×250 mm, Dionex). Seven different monosaccharides including L-Fucose, L-rhamnose, D-galactose, L-arabinose, D-glucose, D-manose and D-xylose were used as references. The D-glucose was separated isocratically at a flow rate 0.35 mL/min with 24 mM NaOH (pH>12.5) over 18 min. The column was then washed with a linear gradient of NaOH from 24 mM to 200 mM over 5 min. The IAD waveform was set following manufacturer's recommendation.
Stage 3, detection: 50 μl of the reaction mix were transferred to a 96-well filtration plate (Abgene, U.K.), mixed with an equal volume of PVPP aqueous suspension (25 g/L), shaken for 1 h at 25° C. before centrifugation (1000 g, 5 min). To each filtrate, 50 mM 2-morpholino-ethanesulfonic acid buffer (MES) (pH 7.0), ABTS™ (0.1 mM), peroxidase (2 U) and glucose oxidase (2 U) were added to a final volume of 125 μl. The formation of the green dye was monitored at 405 nm at 30 min using a plate reader (Bio-Tec Instruments Inc., U.S.A).

[2] = Autohydrolysis of esculin in MES buffer, RP-HPLC; assay type: physicochemical; settings: 50 mM MES buffer (pH 7.0), 44 h at 25° C.
Protocol: (§1) FIG. 5: Investigation of ecsulin hydrolysis. Neither a) autohydrolysis in MES buffer nor b) hydrolysis in bacterial culture of esculin (12) was detected. Samples at 24 h, 44 h incubation and additionally a standard of the aglycone esculetin (11) are illustrated;
(§2) For these controls, samples were incubated for 44 h at 25° C. as in the standard experimental conditions, and analyzed by RP-HPLC to confirm the lack of aglycone (esculetin, 11) (FIG. S1).

[3] = system: E. coli transformed with pGEX-2T vector; experiment: Hydrolysis of esculin in bacterial culture, RP-HPLC; settings: 44 h at 25° C.
Protocol: as §1, §2

[4] = Whole-cell biocatalysis screen of GT library against the aglycone daidzein (RP-HPLC of glucosides); assay type: cell-based, E. coli; settings: for regioselectivity for the 7-OH of daidzein: percentage of a regiospecific glucoside in the total amount of monoglucosides formed
Description: FIG. 3: Screening of a GT-library against the aglycone daidzein. a) The readings at A405 nm for D-glucose detection are presented in a colored code format. b) Examples of RP-HPLC trace of active and non-active GTs in whole-cell biocatalysis are illustrated. c) The regioselectivity of the active GTs towards daidzein, defined by the percentage of a regiospecific glucoside in the total amount of monoglucosides formed;
Reverse-phase HPLC (RP-HPLC): RP-HPLC (Agilent 1100 system with Photodiode Array Detector, Agilent, U.K.) analysis was carried out using a Columbus 5-μ C18 column (150×3.20 mm, Phenomenex, U.K.). Glucosides were separated from their respective aglycones using a linear gradient of acetonitrile/0.1% formic acid (v/v) in H2O: 10-45% (trans-resveratrol/glucosides), 10-50% (daidzein/glucosides) at 0.5 mL/min over 20 min and monitored at 280 nm and 250 nm. Separation of scopoletin/scopolin and esculetin/esculin was carried out using the conditions described previously.^[11]
The cDNA library of 96 Arabidopsis thaliana GTs was subcloned into the multiple cloning site of the glutathione-S-transferase (GST) gene fusion vector pGEX-2T (Amersham Biosciences, U.K.) as described previously^[10] and transformed into the strain E. coli BL21 (DE3) for use in the screening method.
Stage 1, biotransformation: single colonies of the GT library grown on LB-agar plates overnight were transferred to individual wells in a 96-well bacterial culture plate containing 400 μl 2×YT medium (16 g/L bacto tryptone, 10 g/L yeast extract, 5 g/L NaCl) and 50 μg/mL ampicillin. The plate was covered with an adhesive plate seal (Abgene, U.K.) and incubated at 37° C. (250 rpm). The bacterial growth was monitored at 595 nm by a plate reader. After 4 h, the cultures had reached exponential phase. The plate was centrifuged (4000 g, 10 min), the supernatants discarded and cell pellets were resuspended in isopropyl-D-thiogalactopyranoside (0.1 mM), 2-(N-morpholino)ethanesulfonic acid (50 mM, pH 7.0), ampicillin (50 μg/mL), L-arabinose (10 g/L) and 500 µM of aglycone to a total whole-cell reaction volume of 400 μl/well. The 96-well plate was closed with a gas permeable adhesive plate seal, wrapped in alu foil for light protection and incubated at 25° C. (250 rpm). After 44 h the cultures were centrifuged (4000 g, 15 min) and the supernatants analyzed. […]
Stage 3, detection: 50 μl of the reaction mix were transferred to a 96-well filtration plate (Abgene, U.K.), mixed with an equal volume of PVPP aqueous suspension (25 g/L), shaken for 1 h at 25° C. before centrifugation (1000 g, 5 min). […] The formation of the green dye was monitored at 405 nm at 30 min using a plate reader (Bio-Tec Instruments Inc., U.S.A). […]

With `O=C[C@H](O)[C@@H](O)[C@H](O)[C@H](O)CO` [D-glucose] the “loss of D-glucose by filtration through PVPP” value [1] was “no significant loss”.

With `O=c1ccc2cc(O[C@@H]3O[C@H](CO)[C@@H](O)[C@H](O)[C@H]3O)c(O)cc2o1` [esculin, esculetin-6-O-glucoside] the autohydrolysis during incubation [2] was “lack of autohydrolysis” and the “hydrolysis in the presence of the bacterial culture” value [3] was “not hydrolyzed”.

B1: GT 84A1: Arabidopsis thaliana glycosyltransferase, SEQ ID NO: 81 (nucleotide), 130 (amino acid) (protein, listed as Arabidopsis thaliana)
chain: MVFETCPSPNPIHVMLVSFQGQGHVNPLLRLGKLIASKGLLVTFVTTELWGKKMRQANKIVDGELKPVGSGSIRFEFFDEEWAEDDDRRADFSLYIAHLESVGIREVSKLVRRYEEANEPVSCLINNPFIPWVCHVAEEFNIPCAVLWVQSCACFSAYYHYQDGSVSFPTETEPELDVKLPCVPVLKNDEIPSFLHPSSRFTGFRQAILGQFKNLSKSFCVLIDSFDSLEQEVIDYMSSLCPVKTVGPLFKVARTVTSDVSGDICKSTDKCLEWLDSRPKSSVVYISFGTVAYLKQEQIEEIAHGVLKSGLSFLWVIRPPPHDLKVETHVLPQELKESSAKGKGMIVDWCPQEQVLSHPSVACFVTHCGWNSTMESLSSGVPVVCCPQWGDQVTDAVYLIDVFKTGVRLGRGATEERVVPREEVAEKLLEATVGEKAEELRKNALKWKAEAEAAVAPGGSSDKNFREFVEKLGAGVTKTKDNGY
In the case of B1, the “regioselectivity for the 7-OH of daidzein” value (“regioselectivity” below) [4] is reported as 100%.

B2: GT 73C4: Arabidopsis thaliana glycosyltransferase, SEQ ID NO: 30 (nucleotide), 121 (amino acid) (protein, listed as Arabidopsis thaliana)
chain: MASEKSHKVHPPLHFILFPFMAQGHMIPMIDIARLLAQRGATVTIVTTRYNAGRFENVLSRAMESGLPINIVHVNFPYQEFGLPEGKENIDSYDSMELMVPFFQAVNMLEDPVMKLMEEMKPRPSCIISDLLLPYTSKIARKFSIPKIVFHGTGCFNLLCMHVLRRNLEILKNLKSDKDYFLVPSFPDRVEFTKPQVPVETTASGDWKAFLDEMVEAEYTSYGVIVNTFQELEPAYVKDYTKARAGKVWSIGPVSLCNKAGADKAERGNQAAIDQDECLQWLDSKEDGSVLYVCLGSICNLPLSQLKELGLGLEKSQRSFIWVIRGWEKYNELYEWMMESGFEERIKERGLLIKGWSPQVLILSHPSVGGFLTHCGWNSTLEGITSGIPLITWPLFGDQFCNQKLVVQVLKAGVSAGVEEVMKWGEEEKIGVLVDKEGVKKAVEELMGASDDAKERRRRVKELGESAHKAVEEGGSSHSNITYLLQDIMQQVKSKN
In the case of B2, the “daidzein glucosides formed / positions glycosylated” value ([4]; whole-cell biocatalysis, 500 µM aglycone, 44 h, 25° C.) is reported as “produced the diglucoside in addition to the monoglucosides”.

B3: GT 73B1: Arabidopsis thaliana glycosyltransferase, SEQ ID NO: 22 (nucleotide), 114 (amino acid) (protein, listed as Arabidopsis thaliana)
chain: MGTPVEVSKLHFLLFPFMAHGHMIPTLDMAKLFATKGAKSTILTTPLNAKLFFEKPIKSFNQDNPGLEDITIQILNFPCTELGLPDGCENTDFIFSTPDLNVGDLSQKFLLAMKYFEEPLEELLVTMRPDCLVGNMFFPWSTKVAEKFGVPRLVFHGTGYFSLCASHCIRLPKNVATSSEPFVIPDLPGDILITEEQVMETEEESVMGRFMKAIRDSERDSFGVLVNSFYELEQAYSDYFKSFVAKRAWHIGPLSLGNRKFEEKAERGKKASIDEHECLKWLDSKKCDSVIYMAFGTMSSFKNEQLIEIAAGLDMSGHDFVWVVNRKGSQEEKEDWLPEGFEEKTKGKGLIIRGWAPQVLILEHKAIGGFLTHCGWNSLLEGVAAGLPMVTWPVGAEQFYNEKLVTQVLKTGVSVGVKKMMQVVGDFISREKVEGAVREVMVGEERRKRAKELAEMAKNAVKEGGSSDLEVDRLMEELTLVKLQKEKV
With B3 the “regioselectivity” value [4] was 100%.

B4: GT 73B2: Arabidopsis thaliana glycosyltransferase, SEQ ID NO: 23 (nucleotide), 115 (amino acid) (protein, listed as Arabidopsis thaliana)
chain: MGSDHHHRKLHVMFFPFMAYGHMIPTLDMAKLFSSRGAKSTILTTSLNSKILQKPIDTFKNLNPGLEIDIQIFNFPCVELGLPEGCENVDFFTSNNNDDKNEMIVKFFFSTRFFKDQLEKLLGTTRPDCLIADMFFPWATEAAGKFNVPRLVFHGTGYFSLCAGYCIGVHKPQKRVASSSEPFVIPELPGNIVITEEQIIDGDGESDMGKFMTEVRESEVKSSGVVLNSFYELEHDYADFYKSCVQKRAWHIGPLSVYNRGFEEKAERGKKANIDEAECLKWLDSKKPNSVIYVSFGSVAFFKNEQLFEIAAGLEASGTSFIWVVRKTKDDREEWLPEGFEERVKGKGMIIRGWAPQVLILDHQATGGFVTHCGWNSLLEGVAAGLPMVTWPVGAEQFYNEKLVTQVLRTGVSVGASKHMKVMMGDFISREKVDKAVREVLAGEAAEERRRRAKKLAAMAKAAVEEGGSSFNDLNSFMEEFSS
With B4 the “regioselectivity” value [4] was 100%.
